B1: mitochondrial malate dehydrogenase (enzyme)
chain: AKVAVLGASGGIGQPLSLLLKNSPLVSRLTLYDIAHTPGVAADLSHIETKAAVKGYLGPEQLPDCLKGCDVVVIPAGVPRKPGMTRDDLFNTNATIVATLTAACAQHCPEAMICVIANPVNSTIPITAEVFKKHGVYNPNKIFGVTTLDIVRANTFVAELKGLDPARVNVPVIGGHAGKTIIPLISQCTPKVDFPQDQLTALTGRIQEAGTEVVKAKAGAGSATLSMAYAGARFVFSLVDAMNGKEGVVECSFVKSQETECTYFSTPLLLGKKGIEKNLGIGKVSSFEEKMISDAIPELKASIKKGEDFVKTLK
B2: murine cytosolic aspartate aminotransferase (enzyme)
chain: MAPPSVFAQVPQAPPVLVFKLTADFRDDPDPRKVNLGVGAYRTDESQPWVLPVVRKVEQKIANDNSLNHEYLPILGLAEFRSCASRLVLGDNSLAIRENRVGGVQSLGGTGALRIGADFLGRWYNGTDNKNTPIYVSSPTWENHNAVFSAAGFKDIRPYCYWDAEKRGLDLQGFLNDLENAPEFSIFVLHACAHNPTGTDPTPEQWKQIAAVMQRRFLFPFFDSAYQGFASGDLEKDAWAIRYFVSEGFELFCAQSFSKNFGLYNERVGNLTVVGKESDSVLRVLSQMEKIVRITWSNPPAQGARIVAATLSDPELFKEWKGNVKTMADRILTMRSELRARLEALKTPGTWSHITEQIGMFSFTGLNPKQVEYLVNEKHIYLLPSGRINMCGLTTKNLDYVATSIHEAVTKIQ
B3: 3-hydroxyisobutyrate dehydrogenase (enzyme)
chain: ASKTPVGFIGLGNMGNPMAKNLMKHGYPLILYDVFPDVCKEFKEAGEQVASSPAEVAEKADRIITMLPSSMNAVEVYSGANGILKKVKKGSLLIDSSTIDPSVSKELAKEVEKMGAVFMDAPVSGGVGAARSGNLTFMVGGVEDEFAAAQELLECMGSNVVYCGAVGTGQSAKICNNMLLAISMIGTAEAMNLGIRSGLDPKLLAKILNMSSGRCWSSDTYNPVPGVMHGVPSSNNYQGGFGTTLMAKDLGLAQDSATSTKTPILLGSLAHQIYRMMCSKGYSKKDFSSVFQYLREEEPF
B4: human mitochondrial superoxide dismutase (enzyme)
chain: KHSLPDLPYDYGALEPHINAQIMQLHHSKHHAAYVNNLNVTEEKYQEALAKGDVTAQIALQPALKFNGGGHINHSIFWTNLSPNGGGEPKGELLEAIKRDFGSFDKFKEKLTAASVGVQGSGWGWLGFNKERGHLQIAACPNQDPLQGTTGLIPLLGIDVWEHAYYLQYKNVRPDYLKAIWNVINWENVTERYMACKK
B5: NAD(P)H-hydrate epimerase (enzyme)
chain: ASTVVKYLSQEEAQAVDQELFNEYQFSVDQLMELAGLSCATAIAKAYPPTSMSRSPPTVLVICGPGNNGGDGLVCARHLKLFGYEPTIYYPKRPNKPLFTALVTQCQKMDIPFLGEMPAEPMTIDELYELVVDAIFGFSFKGDVREPFHSILSVLKGLTVPIASIDIPSGWDVEKGNAGGIQPDLLISLTAPKKSATQFTGRYHYLGGRFVPPALEKKYQLNLPPYPDTECVYRLQ
B6: creatine kinase M from mouse heart (enzyme)
chain: not shown

In general, stoichiometry N refers to the number of molecules, sites or subunits per partner or assembly.

The series deals with the molecule itself. Briefly: native MS.
With B1, the “stoichiometry N” value came to 2.
Turning to B2, the “stoichiometry N” value came to 2.
For the protein B3, the “stoichiometry N” value was 4.
In the case of B4, the “stoichiometry N” value was determined as 4.
For the protein B5, the “stoichiometry N” value was determined as 2.
As for B6, the “stoichiometry N” value came out at 2.

The values above are taken from paper PMC5726920 (Nature chemical biology, 2017).
